Results from patent publication US20050175724A1, “Composition for modulating a physiological reaction or inducing an immune response” (priority 2002, published 2005).

What was measured:
[1] = in vivo; cited from earlier work
[2] = delivered together with deoxycholate; cited from earlier work
proteolytic enzyme = assay: In vitro proteolytic enzyme inhibition (casein digestion by intestinal enzyme extract); assay type: biochemical, rainbow trout; settings: increasing level of inhibitor inclusion; FIGS. 5-12
Method: • 1. Centrifuge Sorvall model • 2. Bench-top blender • 3. Dissecting material (scissors) • 4. Centrifuge bottle • 5. Disposable cuvettes for spectrophotometer • 6. Microcentrifuge tubes 1.5 ml • 7. Spectrophotometer • 8. Vortexer • 9. Microplates reader from Biorad • 10. 50 mM Tris-HCl pH=7.5 • 11. Commassie blue staining solution • 12 BSA (1 mg\ml) standard solution • 13 TCA 20% • 14. Rainbow trouts pancreatic and duodenal tissues • 15.0.5% casein in 50 mM Tris-HCl pH=9 • 16.50 mM Tris-HCl+CaCl2 10 mM pH=7.5 Enzyme Extract • 1. Rainbow trout were weighed and sacrificed. • 2. Dissection was performed to remove the proximal small intestine from the fish. • 3. After weighing, the tissues were homogenised in 50 mM Tris-HCl ph=7.5 (1:10 w\v). • 4. Centrifuge at 16000×g for 30 min at 4° C. • 5. Keep the supernatant. Aliquot and store them at −20 C for further use. • 6. Perform Commassie assay to measure the amount of protein present in the enzyme extract. Commassie Blue Stain Protocol • 1. Weigh 160 mg of BSA in 10 ml of […] Tris-HCl pH=7.5. • 2. […] Read at 655 nm with the microplate reader from Biorad. […] Centrifuge at 12000×g for 5 min and read at 280 nm. […] Centrifuge at 12000×g for 5 min and read at 280 nm. […] Centrifuge at 12000×g for 5 min and read at 280 nm. […] Centrifuge at 12000×g for 5 min and read at 280 nm. […] Centrifuge at 12000×g for 5 min and read at 280 nm. […]

salmonids = settings: in vivo; cited from earlier work
rainbow trout = assay: Growth enhancement, intraperitoneal bST; assay type: in vivo, Oncorhynchus mykiss; settings: IP 20 μg bST/g live body weight weekly for 6 weeks
Method: Intraperitoneal (IP) administration dose per fish weekly was 20 μg bST/g live body weight for 6 weeks.

horseradish peroxidase
time to transport to the circulation after oral administration [1]: ≤ 1 h

recombinant human GH: recombinant human growth hormone
enhancement of oral absorption [2]: ≤ 1000 fold

B1: lyophylized ovalbumin: individual protease inhibitor component of the Oralject cocktail (protein, UniProt P01012 2-386, looked up)
Ovalbumin: GSIGAASMEFCFDVFKELKVHHANENIFYCPIAIMSALAMVYLGAKDSTRTQINKVVRFDKLPGFGDSIEAQCGTSVNVHSSLRDILNQITKPNDVYSFSLASRLYAEERYPILPEYLQCVKELYRGGLEPINFQTAADQARELINSWVESQTNGIIRNVLQPSSVDSQTAMVLVNAIVFKGLWEKAFKDEDTQAMPFRVTEQESKPVQMMYQIGLFRVASMASEKMKILELPFASGTMSMLVLLPDEVSGLEQLESIINFEKLTEWTSSNVMEERKIKVYLPRMKMEEKYNLTSVLMAMGITDVFSSSANLSGISSAESLKISQAVHAAHAEINEAGREVVGSAEAGVDAASVSEEFRADHPFLFCIKHIATNAVLFFGRCVSP
in vitro proteolytic enzyme inhibition (proteolytic enzyme): affect to differing degrees

B2: spray-dried ovalbumin: individual protease inhibitor component of the Oralject cocktail (protein, UniProt P01012 2-386, looked up)
Ovalbumin: B1 Ovalbumin
in vitro proteolytic enzyme inhibition (proteolytic enzyme): affect to differing degrees

B3: bovine GH: bovine growth hormone (protein, UniProt P01246 27-217, looked up)
Somatotropin: AFPAMSLSGLFANAVLRAQHLHQLAADTFKEFERTYIPEGQRYSIQNTQVAFCFSETIPAPTGKNEAQQKSDLELLRISLLLIQSWLGPLQFLSRVFTNSLVFGTSDRVYEKLKDLEEGILALMRELEDGTPRAGQILKQTYDKFDTNMRSDDALLKNYGLLSCFRKDLHKTETYLRVMKCRRFGEASCAF
increase in growth rate (salmonids): two to three-fold

B4: recombinant bST: recombinant bovine somatotropin (Monsanto Co.) (protein, UniProt P01246 27-217, looked up)
Somatotropin: B3 Somatotropin
body weight gain (rainbow trout): significantly induces increased body weight gain
